Laboratory results from US20170081417A1 (Kyowa Kirin, published 2017).
No end group written: not given here.

Columns and labels:
[1] = molecular target: T1, human OX40 extracellular domain fused to the Fc portion of human IgG1 (hOX40:hFc) (human); assay: ELISA, blocking of OX40L-FLAG binding to coated hOX40:hFc
T1 construct: Made in Tn5 insect cells; also called OX40-hIgG1; human OX40:hIgG1 fusion protein
Experimental: (§1) The ability of 112F32, 112V8, 112Y131, 112Y55, and 112Z5 to block soluble hOX40L binding to coated hOX40:hFc fusion protein was tested using an ELISA protocol (FIG. 5A, Table 3). The plates were coated with hOX40:hFc and after blocking non-specific sites the anti-OX40 antibodies were allowed to bind. Without washing OX40L-FLAG was added to the wells. Bound ligand was detected with anti-FLAG-HRP secondary antibody. Percent inhibition was determined using the following formula (100−(OD sample/OD maximum OX40L binding))*100. 112V8, 112Y55, and 112Y131 prevented 85% of the binding of soluble OX40L to hOX40:hFc. 112F32 prevented approximately 70% of the binding of soluble hOX40L to hOX40:hFc and 112Z5 blocked 67% of the maximal binding.

[2] = molecular target: T2, human OX40 (CD134), full length, expressed on cells (activated human T cells); EL4-OX40 and CHO-OX40 … (human, UniProt P43489 29-277); assay: flow cytometry, blocking of OX40L-FLAG binding to activated human T cells
T2 construct: also called TNFRSF4; surface expressed OX40
T2 sequence: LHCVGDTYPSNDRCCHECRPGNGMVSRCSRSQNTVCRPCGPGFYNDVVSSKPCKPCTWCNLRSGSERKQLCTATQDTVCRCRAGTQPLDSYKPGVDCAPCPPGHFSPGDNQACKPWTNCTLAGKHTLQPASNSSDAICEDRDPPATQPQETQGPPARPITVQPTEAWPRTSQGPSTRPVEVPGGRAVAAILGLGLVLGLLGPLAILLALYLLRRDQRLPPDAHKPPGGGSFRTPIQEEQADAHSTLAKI
Description: The activated T cells were also stained with mouse anti-human OX40 antibody L106 (Becton Dickinson), which was directly conjugated to phycoerythrin or whose binding was detected with anti-mouse IgG-PE (Southern Biotechnology Associates.) OX40L Blocking Assays: To determine if the anti-human OX40 antibodies could block OX40L binding to soluble OX40 both ELISA and flow cytometric protocols were used. In the ELISA 96 well Nunc flat bottom plates were coated with recombinant soluble hOX40:hFc at 2 μg/ml in carbonate buffer (pH9.4) for one hour at 37° C. The plates were washed with PBS/0.1% Tween 20 and Superblock (Pierce) was added to the wells to block non-specific binding. The test antibodies were diluted to 1 μg/ml in PBS/Tween and added to the plates. After one hour incubation at 37° C., FLAG tagged recombinant soluble human OX40L (Alexis Biochemicals, San Diego, Calif.) was added to the appropriate wells without washing out the anti-OX40 antibodies. Following one hour incubation, the plates were washed and an anti-FLAG-peroxidase conjugated antibody (Sigma) was added to the wells for one hour at 37° C. The TMB substrate was added, after ten minutes the reaction was stopped with H₂SO₄, and the results were read at 450 nm using a microplate reader. In the flow cytometric assay, human CD4+ T cells were purified and activated with PHA+IL2 for two days. The cells were washed and resuspended in staining buffer and then incubated with increasing amounts of human anti-human OX40 antibodies for twenty minutes on ice, from 0.005-50 μg/ml. Soluble recombinant OX40L-FLAG was then added to the cells. The cells were washed and incubated with anti-FLAG conjugated to PE (Sigma). After another wash, the cells were fixed with 1% paraformaldehyde and analyzed on a FACScan or FACScalibur.
Slightly different results were obtained when a flow cytometric based assay was used to monitor blockade of soluble OX40L binding to activated human T cells that express OX40 (FIG. 5B). Activated human T cells were labeled with anti-OX40 antibodies followed by soluble flag tagged-human OX40L. Binding of OX40L was detected with anti-FLAG-PE antibody. Percent inhibition was determined using the same formula, i.e., (100−(sample/maximum binding))*100.

[3] = molecular target: T3, human OX40 peptide 112B (human, also: conjugated to KLH via maleimide linker); assay: ELISA on coated KLH-conjugated peptide
T3 peptide: RAGTQPLDSYKPGVDC
Experimental: (§2) Antibody titers, specificity, and production by hybridomas were determined by ELISA. In brief, 96 well flat bottom plates were coated with 50 μl of hOX40:hFc at 5 μg/ml in carbonate buffer (pH 9.4) overnight at 4° C. or at 37° C. for one hour. After washing twice with PBS/0.1% Tween 20, plates were blocked with PBS/1% BSA/0.1% Tween20 at 37° C. for one hour. The serum, supernatant, or purified antibody was diluted in blocking buffer, added to the wells, and the plates were incubated for one hour at 37° C. The plates were washed four times with PBS/0.1% Tween 20 and the peroxidase conjugated sheep anti-human kappa detection antibody (The Binding Site, Birmigham, UK) was added at a dilution of 1:2000. Following one hour incubation at 37° C., the plates were washed and the TMB (Sigma) substrate was added and incubated at room temperature for ten to thirty minutes. The reaction was stopped with H₂SO₄ (LabChem) and the optical density was measured at 450 nm by a microplate reader.
(§3) The peptides were generated by A & A Lab, LLC and conjugated to keyhole limpet hemocyanin (“KLH”) with a maleimide linker following the manufacturer's instructions (Pierce). The peptides were coated at 10 μg/ml in carbonate buffer to 96 well Maxisorp ELISA plates (Nunc) at 4° C. overnight. The plate was washed with PBS/0.1% Tween 20 and then blocked with Casein buffer (Pierce) for three hours at room temperature. Candidate antibodies were added at 10 μg/ml diluted in 10% Casein in PBS/0.1% Tween 20. The remainder of the ELISA was performed as described for the OX40 specific antibody detection ELISA.

[4] = molecular target: T4, human OX40 peptide 112C (human, also: conjugated to KLH via maleimide linker); assay: ELISA on coated KLH-conjugated peptide
T4 peptide: LAGKHTLQPASNSSDAIC
Experimental: as §2, §3

[5] = molecular target: T5, human OX40 peptide 112A (human, also: conjugated to KLH via maleimide linker); assay: ELISA on coated KLH-conjugated peptide
T5 peptide: RPAGPGFYNDVVSSKPC
Experimental: as §2, §3

[6] = molecular target: T2, human OX40 (CD134), full length, …; assay: cell-based or functional assay
[7] = molecular target: T1, human OX40 extracellular domain fused …; assay: ELISA, OX40L-FLAG binding to coated hOX40:hFc, anti-FLAG-HRP
Experimental: as §1

T1 sequence (chain, as listed by the source limits assumed): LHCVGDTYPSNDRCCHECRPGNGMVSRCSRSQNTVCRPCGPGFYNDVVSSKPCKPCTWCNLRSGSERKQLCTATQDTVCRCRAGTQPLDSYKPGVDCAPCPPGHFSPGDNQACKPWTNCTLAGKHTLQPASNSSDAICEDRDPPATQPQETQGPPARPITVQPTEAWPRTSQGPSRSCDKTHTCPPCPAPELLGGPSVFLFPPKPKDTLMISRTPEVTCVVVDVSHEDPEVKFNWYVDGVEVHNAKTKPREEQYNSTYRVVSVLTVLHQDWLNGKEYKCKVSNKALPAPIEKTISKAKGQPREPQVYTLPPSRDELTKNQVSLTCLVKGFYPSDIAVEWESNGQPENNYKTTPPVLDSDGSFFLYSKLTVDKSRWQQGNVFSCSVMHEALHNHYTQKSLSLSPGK

B1: 112Y55 human anti-human OX40 monoclonal antibody (hybridoma ATCC No. PTA-7220) (antibody, V domains shown)
VH: QITLKESGPTLVKPTQTLTLSCTFSGFSLSTSGVGVGWIRQPPGKALEWLALIHWDDAERYSPSLKSRLTITKDTSKNQVVLTMTNMDLVDTATYYCAHTRGAFDIWGQGTMVTVSS
VL: EIVLTQSPGTLSLSPGERAILSCRASQSVSSSFLAWYQQKPGQAPRLLIYGAFSRATGIPDRFSGSGSGTDFTLTISRLEPEDFAVYYCQQYDSSRTFGQGTKVEIK
IC50 [1]: 0.073 µg/mL | IC50 [2]: 0.9 µg/mL | binding result [3]: no binding (tested: 10 µg/ml) | binding result [4]: no binding (tested: 10 µg/ml) | binding result [5]: no binding (tested: 10 µg/ml) | ADCC % Lysis at 10 µg/ml [6]: 54.2% | percent inhibition of OX40L binding [7]: 85%

B2: 112Y131 human anti-human OX40 monoclonal antibody (hybridoma ATCC No. PTA-7218) (antibody, V domains shown)
VH: QITLKESGPTLVKPTQTLTLTCTFSGFSLSTSGVGVGWIRQPPGKALEWLALIYWDDHSPYSPSLKSRLTITKDTSKNQVVLTMTNMDPVDTATYYCARTRGAFDIWGQGTMVTVSS
VL: EIVLTQSPATLSLSPGERATLSCRASQGVSSYLAWYQQKPGQAPRLLIYDASNRATGIPARFSGSGPGTDFTLTISSLEPEDFAVYYCQQRSNWHPTFGQGTKVEIK
IC50 [1]: 0.069 µg/mL | IC50 [2]: 0.91 µg/mL | binding result [3]: no binding (tested: 10 µg/ml) | binding result [4]: no binding (tested: 10 µg/ml) | binding result [5]: no binding (tested: 10 µg/ml) | ADCC % Lysis at 10 µg/ml [6]: 18% | percent inhibition of OX40L binding [7]: 85%
